For one experiment, the system named is C2C12 myoblasts. Put plainly: Retroviral over-expression in C2C12 cells, myoblast fusion. To be noted: 4 days of differentiation. The format is cell-based.
Experiment [1] deals with 10T1/2 fibroblasts mixed with C2C12 cells. In words: Cell mixing: infected 10T1/2 fibroblasts with C2C12 myoblasts. The format is cell-based. As to the method:
WT myoblasts were mixed with either Myomaker+/− or Myomaker−/− myoblasts at equal ratios (approximately 1×10^5 cells per genotype), plated on a well of a laminin coated 12-well plate, and induced to differentiate the next day. 10T1/2 fibroblasts were infected with either GFP- and empty-retrovirus or GFP- and Myomaker-retrovirus for 18 h. After infection, cells were washed multiple times and then trypsinized, and mixed with C2C12 myoblasts at a 1:1 ratio (1×10^5 of each cell type) and plated on one well of a 6 well plate in differentiation media. GFP and myosin expression was analyzed 4 days after differentiation. […]
Each histological analysis of embryonic skeletal muscle was performed on four samples per genotype. The differentiation index was calculated as the percentage of nuclei in myosin-positive cells. The fusion index was calculated as the percentage of nuclei contained in myosin-positive myotubes. […] To quantitate fusion between WT myoblasts and either Myomaker+/− or Myomaker−/− myoblasts, the inventors calculated the percentage of LacZ+ myotubes containing ≥3 nuclei. To quantitate fusion between fibroblasts and myoblasts, the inventors calculated the percentage of GFP+ myosin+ cells or the percentage of BrdU+ myotube nuclei. For each quantitation, at least 3 independent experiments were performed in duplicate and at least 6 random fields were imaged per sample. […]

B1: Tmem8b: closest relative of Myomaker/Tmem8c, not muscle-specific (protein, UniProt B1AWJ5 1-472, looked up)
Transmembrane protein 8B: MNMPQSLGTQPLPPEPPSLGTPIEGSGAIAPTEHCWPVRPTLRNELDTFSVHFYIFFGPSVALPPERPAVFALRLLPVLDSGGVLSLELQLNASSLRQENVTVFGCLTHEVPLSLGDAAVTCSKESLAGFLLSVSATSRVARLRIPFPQTGTWFLTLRSLCGVGPRFVRCRNATAEVRLRTFLSPCVDDCGPYGQCKLLRTHNYLYAACECKAGWRGWGCTDSADALTYGFQLLSTLLLCLSNLMFLPPVVLAIRSRYVLEAAVYTFTMFFSTFYHACDQPGIVVFCIMDYDVLQFCDFLGSLMSVWVTVIAMARLQPVIKQVLYLLGAMLLSMALQLDRHGLWNLLGPSLFALGILATAWTVRSVRRRHCYPPTWRRWLFYLCPGSLIAGSAVLLYAFVETRDNYFYIHSIWHMLIAGSVGFLLPPRAKTDRRVPSGARARGCGYQLCINEQEELGLVGPGGTTVSSICVS
For B1, the “myoblast fusion after forced expression” value in the experiment on C2C12 myoblasts was “did not promote fusion”.

B2: Myomaker: muscle-specific membrane protein of 221 residues, expressed from pBabe-X retrovirus (protein, UniProt Q9D1N4 1-221, looked up)
Protein myomaker: MGTVVAKLLLPTLSSLAFLPTVSIATKRRFYMEAMVYLFTMFFVAFSHACDGPGLSVLCFMRRDILEYFSIYGTALSMWVSLMALADFDEPQRSTFTMLGVLTIAVRTFHDRWGYGVYSGPIGTATLIIAVKWLKKMKEKKGLYPDKSIYTQQIGPGLCFGALALMLRFFFEEWDYTYVHSFYHCALAMSFVLLLPKVNKKAGNAGAPAKLTFSTLCCTCV
Turning to B2, the “myoblast fusion after forced expression” value in the experiment with C2C12 myoblasts is on record as “dramatic increase in fusion”. In experiment [1] (10T1/2 fibroblasts infected with GFP and Myomaker virus, mixed 1:1 with C2C12, 4 days differentiation), the “fusion of infected fibroblasts with C2C12 cells” value is listed as “robustly fused with C2C12 cells”. Further, the “fusion of fibroblasts in the absence of myoblasts” value in experiment [1] (fibroblasts expressing Myomaker, no myoblasts) is “not sufficient to induce fusion of fibroblasts”.

Values taken from US11471509B2, “Compositions and methods relating to myomaker-induced muscle cell fusion” (The Board of Regents of the University of Texas System, priority 2013, dated 2022).
